Laboratory results published in patent US20140113348A1.

Target: meditope-enabled trastuzumab Fab fragment
Test: SPR; meditope alone on the Fab fragment, not IgG

Chain of meditope-enabled trastuzumab Fab fragment (chain, as listed by the source limits assumed, chain 1 of 2): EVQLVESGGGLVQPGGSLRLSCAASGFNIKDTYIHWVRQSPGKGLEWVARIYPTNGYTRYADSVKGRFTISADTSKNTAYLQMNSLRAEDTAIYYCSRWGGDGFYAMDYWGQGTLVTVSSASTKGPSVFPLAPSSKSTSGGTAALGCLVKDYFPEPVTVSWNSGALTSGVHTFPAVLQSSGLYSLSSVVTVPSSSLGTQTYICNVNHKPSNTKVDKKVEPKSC
Chain of meditope-enabled trastuzumab Fab fragment (chain, as listed by the source limits assumed, chain 2 of 2): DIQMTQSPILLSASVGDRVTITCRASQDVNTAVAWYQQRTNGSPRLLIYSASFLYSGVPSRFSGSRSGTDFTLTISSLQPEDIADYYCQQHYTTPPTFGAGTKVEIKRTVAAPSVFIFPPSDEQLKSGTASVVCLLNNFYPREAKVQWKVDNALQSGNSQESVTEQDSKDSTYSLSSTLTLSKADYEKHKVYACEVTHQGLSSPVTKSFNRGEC

Binder: CQFDLSTRRLKC (modifications not checked) [cQFD meditope (cyclic …)]
- Kd: 1000 nM
